PMC10163261

Assays:
K5:I-E^k = K5:I-E^k (UniProt P04230); assay: BFP force-dependent bond lifetime measurement; details: solid fitted curve (TCR-pMHC-II model) read at force = 10 pN; TCR on hybridomas; parent: est. 1.6; read off a plot
3.L2 TCR = assay: bond lifetime vs force measurement (method not named for this panel); details: solid fitted curve (TCR-pMHC-II model) read at force = 10 pN; TCR on CD4-CD8+ naive T cells; parent: est. 2.3; read off a plot

Sequence of UniProt P04230 (P04230 whole entry, looked up): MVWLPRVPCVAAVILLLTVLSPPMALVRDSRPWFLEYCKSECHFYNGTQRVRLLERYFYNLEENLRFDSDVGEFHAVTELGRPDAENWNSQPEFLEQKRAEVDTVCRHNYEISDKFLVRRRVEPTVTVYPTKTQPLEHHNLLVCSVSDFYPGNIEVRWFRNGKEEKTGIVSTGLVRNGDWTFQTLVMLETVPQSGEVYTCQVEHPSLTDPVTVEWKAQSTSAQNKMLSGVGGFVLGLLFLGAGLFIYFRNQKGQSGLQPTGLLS

Row | other: bond lifetime (K5:I-E^k) | other: bond lifetime (3.L2 TCR) | Substance
1 | 1.3 s |  | hybrid 2B4 TCR with its mouse Vαβ fused with the Cαβ of the human LC13 (WT) (from UniProt P01848) β:G182A; β:K183A
2 | 2.2 s |  | hybrid 2B4 TCR with its mouse Vαβ fused with the Cαβ of the human LC13 (WT) (from UniProt P01848) β:N222A; β:P223A
3 | 0.15 s |  | hybrid 2B4 TCR with its mouse Vαβ fused with the Cαβ of the human LC13 (WT) (from UniProt P01848) β:N225A; β:H226A
4 |  | 1.1 s | Hb:I-Ek T72
5 | 0.38 s |  | hybrid 2B4 TCR with its mouse Vαβ fused with the Cαβ of the human LC13 (WT) (from UniProt P01848) β:H221A; β:N222A
